Experimental data published in US20250243261A1.

What was measured:
[1] = biological target: SARS-CoV-2 BQ.1.1 Spike RBD (SARS-CoV-2 BQ.1.1 variant); assay: BLI, IgG
[2] = biological target: SARS-CoV-2 XBB.1.5 Spike RBD (SARS-CoV-2 XBB.1.5 variant); assay: BLI, IgG
[3] = biological target: SARS-CoV-2 XBB Spike RBD (SARS-CoV-2 XBB variant); assay: BLI, IgG
[4] = biological target: SARS-CoV-2 Beta-variant Spike with two stabilizing proline substitutions (S-2P) (SARS-CoV-2 Beta variant); assay: BLI, IgG, single replicate
[5] = biological target: SARS-CoV-2 Omicron-variant receptor binding domain (RBD) (SARS-CoV-2 Omicron variant); assay: BLI, IgG
[6] = biological target: SARS-CoV-2 Omicron-variant receptor binding domain (RBD) (SARS-CoV-2 Omicron variant); assay: BLI, Fab
[7] = biological target: SARS-CoV-2 Beta-variant Spike with two stabilizing proline substitutions (S-2P) (SARS-CoV-2 Beta variant); assay: BLI, Fab

B1: SA58 WT IgG (antibody, V domains shown)
VH: QVQLAQSGSELRKPGASVKVSCDTSGHSFTSNAIHWVRQAPGQGLEWMGWINTDTGTPTYAQGFTGRFVFSLDTSARTAYLQISSLKADDTAVFYCARERDYSDYFFDYWGQGTLVTVSS
VL: EVVMTQSPASLSVSPGERATLSCRARASLGISTDLAWYQQRPGQAPRLLIYGASTRATGIPARFSGSGSGTEFTLTISSLQSEDSAVYYCQQYSNWPLTFGGGTKVEIK
Work on B1 yielded a Kd [1] of less than 0.001 nM, a Kd [2] of 2400 nM and a Kd [3] of 7400 nM.

B2: REGN10987 WT IgG (antibody, V domains shown)
VH: QVQLVESGGGVVQPGRSLRLSCAASGFTFSNYAMYWVRQAPGKGLEWVAVISYDGSNKYYADSVKGRFTISRDNSKNTLYLQMNSLRTEDTAVYYCASGSDYGDYLLVYWGQGTLVTVSS
VL: QSALTQPASVSGSPGQSITISCTGTSSDVGGYNYVSWYQQHPGKAPKLMIYDVSKRPSGVSNRFSGSKSGNTASLTISGLQSEDEADYYCNSLTSISTWVFGGGTKLTVL
Binder B2 has a Kd [4] of 0.09 nM and a Kd [5] of 700 nM.

B3: REGN10987 WT Fab (Fab, V domains shown)
VH: QVQLVESGGGVVQPGRSLRLSCAASGFTFSNYAMYWVRQAPGKGLEWVAVISYDGSNKYYADSVKGRFTISRDNSKNTLYLQMNSLRTEDTAVYYCASGSDYGDYLLVYWGQGTLVTVSS
VL: QSALTQPASVSGSPGQSITISCTGTSSDVGGYNYVSWYQQHPGKAPKLMIYDVSKRPSGVSNRFSGSKSGNTASLTISGLQSEDEADYYCNSLTSISTWVFGGGTKLTVL
B3 gave a Kd [6] of 23000 nM and a Kd [7] of 13 nM.
